Assay [1] deals with T1, neuropilin-1 on HUVEC (neuropilin-1-expressing cells) (human, UniProt O14786 22-923).
T1 construct: whole, on cells; The assay was done on whole HUVEC; also called NP-1; endothelial cells
The assay is described as follows: Qdot binding to HUVEC, fluorescence microscopy. The procedure: Human umbilical vein endothelial cells (HUVEC) were grown to near confluency on collagen 1-coated 8-well chamber slides (BD Biosciences) in EGM-2 medium (Cambrex). […] The slides were incubated 45 min at 37° C. in a tissue culture incubator with 5% CO₂ then incubated an additional 45 min at room temperature in ambient air. After washing five times with D-PBS (30 sec per wash), the cells were fixed with ice-cold acetone for 2 min, rinsed again with D-PBS, and mounted with SlowFade+Dapi (Molecular Probes). The slide wells were examined with a fluorescence microscope equipped with a filter set optimized for 655 nm quantum dots (Omega).

Assay [2] deals with T2, NP-1/Fc (R&D Systems).
T2 construct: Bought reagent; also called Neuropilin-1/Fc; Npn-1
Description: competition with 250 pM 125I-VEGF165 for plate-coated NP-1/Fc. On the procedure:
(§1) Competitive binding assays with microtiter plates coated with NP-1/Fc (R&D systems) were performed using ¹²⁵I-VEGF₁₆₅ as radioligand (Amersham Pharmacia Biotech Cat. No. IM274, Specific Activity: 1000-2500 Ci/mmol). An assay buffer consisting of Hank's Balanced Salt Solution (HBSS), 25 mM HEPES, and 0.1% BSA, pH 7.4 was used, and for all experiments, Assay volume per well was 75 μL. Plates (Nunc MaxiSorp white opaque Microtiter plate [C-bottom, 437796]) were coated by incubating the wells with 75 μL of a solution containing 3 μg/mL NP-1/Fc in D-PBS/0.1% NaAzide overnight at 4° C. after covering with sealing tape (Dynex, VWR Cat. No. 62402-931). The next day all wells, even control wells lacking NP-1/Fc, were blocked 2 hrs with blocking buffer (1% BSA in D-PBS with 0.05% v/v Tween-20) then washed 4× with PBST (D-PBS/0.05% v/v Tween-20) before starting the assay. All points were derived from triplicate wells, and for each set of replicates in NP-1/Fc-coated wells, a companion set in the absence of the receptor was included. […] Solutions were added to 1.2 mL polypropylene tubes conforming to the microtiter format (Costar Cat. No. 29442-602), and transferred from these tubes to microtiter wells, without further dilution, using a multichannel pipetter. After addition of the appropriate solutions, microtiter plates were incubated at 4° C. for 2 hours. Following the incubation, plates were handwashed 5 times with D-PBS containing 0.05% Tween-20 and 0.1% BSA. The plates were blotted dry and 25 μL deionized water and 100 μL scintillation fluid (Optiphase SuperMix, Wallac) were added to each well. Plates were agitated using a Plate Shaker (Hyperion, Cat. No. 4030-100F) for 3-5 minutes and were then counted using a Microplate Scintillation Counter (Wallac Microbeta Trilux). A set of serially diluted ¹²⁵I-VEGF₁₆₅ standard wells ranging from 200 to 0.04 pM were included with each experiment to aid in quantification of the amount of radiolabel bound. VEGF₁₆₅ (Cat. No. 100-20) was obtained from Peprotech.

The target in assay [3] is T2, NP-1/Fc (R&D Systems). The assay is described as follows: fluorescence polarization, OG-labeled ligand (5-20 nM) titrated with NP-1/Fc, 37 C. On the procedure:
(§2) The ability of various compositions comprising TKPPR monomers or multimers to bind to NP-1/Fc and KDR-Fc was evaluated using FP. […] FP values (mP) for each substrate was measured by titrating the ligand (5-20 nM) with receptor protein using a Jolley Research and Consulting FPM-1 fluorescence Polarization analyzer. In each of these experiments the observed polarization values were plotted against receptor concentration. The mP values for 100% binding of tracer labeled ligand to receptor protein was calculated using the software provided by the vendor.
In general terms: Fluorescence polarisation rises when a labelled molecule tumbles more slowly, as on binding a larger partner.

Assay [4] has as its target T3, NP-1/Fc (R&D Systems).
T3 chain: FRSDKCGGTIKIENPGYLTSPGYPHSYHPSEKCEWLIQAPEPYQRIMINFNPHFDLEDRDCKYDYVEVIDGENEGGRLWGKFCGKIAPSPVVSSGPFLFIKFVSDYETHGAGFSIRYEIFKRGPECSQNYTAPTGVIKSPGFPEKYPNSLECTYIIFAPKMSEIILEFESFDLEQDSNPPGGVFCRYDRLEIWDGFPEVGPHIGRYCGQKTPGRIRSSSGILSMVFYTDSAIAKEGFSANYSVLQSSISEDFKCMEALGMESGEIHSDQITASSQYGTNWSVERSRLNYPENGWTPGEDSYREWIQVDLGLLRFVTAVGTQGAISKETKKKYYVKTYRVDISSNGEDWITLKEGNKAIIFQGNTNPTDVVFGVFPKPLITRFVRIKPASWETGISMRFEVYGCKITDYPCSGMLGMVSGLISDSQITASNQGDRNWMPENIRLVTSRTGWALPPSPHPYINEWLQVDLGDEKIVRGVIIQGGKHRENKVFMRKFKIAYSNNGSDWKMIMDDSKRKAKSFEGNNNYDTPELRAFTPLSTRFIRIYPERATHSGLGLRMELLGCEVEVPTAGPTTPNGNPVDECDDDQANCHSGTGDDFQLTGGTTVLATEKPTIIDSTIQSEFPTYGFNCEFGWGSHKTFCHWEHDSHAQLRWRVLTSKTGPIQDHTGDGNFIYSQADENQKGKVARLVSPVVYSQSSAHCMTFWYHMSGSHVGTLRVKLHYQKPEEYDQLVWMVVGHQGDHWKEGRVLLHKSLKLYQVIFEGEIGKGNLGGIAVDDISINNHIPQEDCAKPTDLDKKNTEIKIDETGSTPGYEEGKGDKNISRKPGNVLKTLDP
The assay is described as follows: competition with 250 pM 125I-VEGF165 for plate-coated NP-1/Fc. On the procedure: as §1

The target in assay [5] is T4, soluble human KDR/Fc chimera (R&D Systems Inc.) (human, UniProt P35968 20-764).
T4 construct: Bought reagent; Fc part of the bought chimera not given, not described
T4 sequence (P35968 20-764, change not shown): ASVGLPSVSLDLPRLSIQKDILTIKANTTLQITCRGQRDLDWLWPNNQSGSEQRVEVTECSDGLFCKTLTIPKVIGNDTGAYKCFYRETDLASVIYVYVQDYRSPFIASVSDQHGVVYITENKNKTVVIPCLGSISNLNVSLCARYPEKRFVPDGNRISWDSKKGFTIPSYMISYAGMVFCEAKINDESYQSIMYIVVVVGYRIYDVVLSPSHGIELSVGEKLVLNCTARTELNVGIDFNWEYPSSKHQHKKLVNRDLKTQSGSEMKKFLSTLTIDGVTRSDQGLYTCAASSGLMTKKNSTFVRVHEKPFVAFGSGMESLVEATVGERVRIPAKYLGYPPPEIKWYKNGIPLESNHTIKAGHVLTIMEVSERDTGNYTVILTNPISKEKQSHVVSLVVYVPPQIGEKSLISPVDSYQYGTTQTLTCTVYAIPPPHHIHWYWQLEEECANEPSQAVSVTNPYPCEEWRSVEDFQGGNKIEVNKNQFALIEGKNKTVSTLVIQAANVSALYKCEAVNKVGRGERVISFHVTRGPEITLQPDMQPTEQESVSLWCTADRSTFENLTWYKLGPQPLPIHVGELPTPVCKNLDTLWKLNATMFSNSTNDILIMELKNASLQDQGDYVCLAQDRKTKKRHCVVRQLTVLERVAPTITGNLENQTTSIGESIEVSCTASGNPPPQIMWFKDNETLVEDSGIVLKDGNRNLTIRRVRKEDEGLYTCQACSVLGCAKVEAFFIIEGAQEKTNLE
The assay is described as follows: competition with 125I-VEGF165 for plate-coated KDR-Fc.

The target of assay [6] is T3, NP-1/Fc (R&D Systems). Description: fluorescence polarization, competition of OG-labeled D41 binding to NP-1/Fc. On the procedure:
as §2

Assay [7] concerns the target T2, NP-1/Fc (R&D Systems). Described as above. On the procedure:
as §2

Non-standard residues stand in square brackets, D forms with d. No end group written: not given here. AEEA = NCCOCCOCC(=O)O

T1 sequence (O14786 22-923): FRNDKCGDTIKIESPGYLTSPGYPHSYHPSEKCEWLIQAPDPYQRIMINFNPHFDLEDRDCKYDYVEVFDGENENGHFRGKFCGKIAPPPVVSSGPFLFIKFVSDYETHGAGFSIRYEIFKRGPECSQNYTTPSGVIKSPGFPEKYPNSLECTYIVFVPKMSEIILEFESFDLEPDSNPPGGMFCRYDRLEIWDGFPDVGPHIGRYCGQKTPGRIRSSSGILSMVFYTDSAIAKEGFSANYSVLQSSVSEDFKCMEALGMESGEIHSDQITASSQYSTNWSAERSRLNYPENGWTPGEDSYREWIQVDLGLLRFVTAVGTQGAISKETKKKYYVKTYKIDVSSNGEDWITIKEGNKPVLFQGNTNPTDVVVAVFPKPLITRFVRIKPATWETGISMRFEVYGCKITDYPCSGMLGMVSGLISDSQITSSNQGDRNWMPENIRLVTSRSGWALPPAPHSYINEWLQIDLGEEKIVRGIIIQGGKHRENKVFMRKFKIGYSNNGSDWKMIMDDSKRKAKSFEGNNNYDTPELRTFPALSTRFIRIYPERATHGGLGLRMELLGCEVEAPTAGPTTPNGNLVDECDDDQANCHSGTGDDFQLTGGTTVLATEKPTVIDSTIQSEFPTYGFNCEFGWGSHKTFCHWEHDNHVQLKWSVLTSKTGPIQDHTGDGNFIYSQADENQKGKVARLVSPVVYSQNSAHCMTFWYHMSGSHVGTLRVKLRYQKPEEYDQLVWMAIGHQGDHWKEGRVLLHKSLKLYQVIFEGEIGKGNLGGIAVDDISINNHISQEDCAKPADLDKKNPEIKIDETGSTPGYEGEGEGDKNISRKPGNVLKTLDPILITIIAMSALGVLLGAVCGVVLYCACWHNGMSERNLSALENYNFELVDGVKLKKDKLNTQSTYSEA

B1: Qdots conjugated with monomeric TKPPR (D51) (peptide)
peptide: TKPPR
modifications: also: further groups not given here
notes: The full structure of D51 ([M+H] 1004.5) stands only in a drawing; also called D51-conjugated Qdots; linear monomeric TKPPR-conjugated Qdots
In the case of B1, the binding result in assay [1] is recorded as “binds”.

B2: TKPPR dimer D40, OG-(TKPPR)2 (peptide)
peptide: [AEEA]TKPPR
modifications: also: dimer on branched bis-acid scaffold carrying one Oregon Green
The IC50 is the concentration that gives 50% inhibition. High values mean weaker potency, low ones greater potency. Molecule B2 registered an IC50 with NP-1/Fc (R&D Systems) [2] of 3 µM.

B3: TKPPR tetramer D41, OG-(TKPPR)4 (peptide)
peptide: [AEEA]TKPPR
modifications: also: tetramer of four TKPPR on a branched non-peptide scaffold, one Oregon Green label on scaffold
notes: also called tetrameric TKPPR; fluorescently-labeled TKPPR tetramer
The Kd is the equilibrium constant for the complex coming apart. A high value points to lower affinity. B3 returned an IC50 with NP-1/Fc (R&D Systems) [2] of 0.13 µM. In the assay with NP-1/Fc (R&D Systems) [3], this molecule came in with a Kd of 0.025 to 0.05 µM.

B4: Oregon Green (5-isomer)-GTKPPR-OH (peptide)
peptide: {Oregon Green (5-isomer)}-GTKPPR-OH
notes: also called D44; OG-TKPPR
Take B4: the IC50 in the assay with NP-1/Fc (R&D Systems) [4] was 30 µM. For the same molecule, the binding result in assay [5] is “no binding”.

B5: Qdots conjugated with tetrameric TKPPR (D50) (peptide)
peptide: [AEEA]TKPPR
modifications: also: four TKPPR on a branched scaffold, thiol coupled through LC-SMCC to quantum dots
notes: Many D50 molecules on each 655 nm quantum dot; also called D50-conjugated Qdots; branched tetrameric TKPPR-conjugated Qdots
On to B5, for which the binding result in assay [1] is “binds”.

B6: VEGF165 (ligand, UniProt P15692-4 27-191, looked up)
chain: APMAEGGGQNHHEVVKFMDVYQRSYCHPIETLVDIFQEYPDEIEYIFKPSCVPLMRCGGCCNDEGLECVPTEESNITMQIMRIKPHQGQHIGEMSFLQHNKCECRPKKDRARQENPCGPCSERRKHLFVQDPQTCKCSCKNTDSRCKARQLELNERTCRCDKPRR
modifications: 125I label on the radioligand form (Amersham IM274)
notes: mature; The labelled and the unlabelled protein are kept as one molecule; also called unlabeled VEGF
As for B6, the IC50 is 0.0005 µM in the assay with NP-1/Fc (R&D Systems) [4] and 0.2 µM with NP-1/Fc (R&D Systems) [6].

B7: Tuftsin (TKPR) (peptide)
peptide: TKPR
notes: Naturally occurring tetrapeptide, used as free peptide; also called free tuftsin
Molecule B7 displayed an IC50 in the assay with NP-1/Fc (R&D Systems) [4] of 280 µM.

B8: TKPPR tetramer D43 on a lysine core with trioxa Oregon Green at the C-terminal (peptide)
peptide: TKPPR
modifications: also: tetramer: C-terminal Arg of each TKPPR linked to amino groups of branched Lys-Lys(Lys)-Gly core, Gly carries TTDA-Oregon Green
notes: The lysine core (three Lys and one Gly) is not written as a chain of its own; also called Reverse Tetramer; compound 16
On to B8, for which, in the assay with NP-1/Fc (R&D Systems) [2], the IC50 stood at 8 µM.

B9: TKPPR (L-threonyl-L-lysyl-L-prolyl-L-prolyl-L-arginine) (peptide)
peptide: TKPPR
notes: also called D45; TKPPR-OH
On to B9, for which the IC50 with NP-1/Fc (R&D Systems) [2] was 43 µM; with NP-1/Fc (R&D Systems) [7], 80 µM.

The values are drawn from patent US20060153775A1 (BRACCO INTERNATIONAL B V, published 2006).
